Test results published in PMC5770421 (2018).

How the values were obtained:
Test in all cases: BLI
H4K12ac [1] = target: T1, H4K12ac (Saccharomyces cerevisiae, acetyl-Lys12 (mature numbering; K13 in UniProt); biotinylated. Limits 1-21 from the pull-down methods; the BLItz peptide is 1-20. Peptide species not given; a commercial vertebrate peptide would …)
H4K5ac [2] = target: T2, H4K5ac (Saccharomyces cerevisiae, acetyl-Lys5 (mature numbering; K6 in UniProt); biotinylated. Limits 1-21 from the pull-down methods; the BLItz peptide is 1-20. Peptide species not given; a commercial vertebrate peptide would have …)
T2 sequence (main, as listed by the source): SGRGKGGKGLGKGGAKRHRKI

H4K8ac [3] = target: T3, H4K8ac (Saccharomyces cerevisiae, acetyl-Lys8 (mature numbering; K9 in UniProt); biotinylated. Limits 1-21 from the pull-down methods; the BLItz peptide is 1-20. Peptide species not given; a commercial vertebrate peptide would have …)
H4K12ac [4] = target: T1, H4K12ac; remark: listed apart in the source
H4K5ac [5] = target: T2, H4K5ac; remark: listed apart in the source
H4K8ac [6] = target: T3, H4K8ac; remark: listed apart in the source

B1: Dot1p (disruptor of telomeric silencing-1), MBP tag removed (enzyme)
chain: MGGQESISNNNSDSFIMSSPNLDSQESSISPIDEKKGTDMQTKSLSSYSKGTLLSKQVQNLLEEANKYDPIYGSSLPRGFLRDRNTKGKDNGLVPLVEKVIPPIHKKTNNRNTRKKSSTTTKKDVKKPKAAKVKGKNGRTNHKHTPISKQEIDTAREKKPLKKGRANKKNDRDSPSSTFVDWNGPCLRLQYPLFDIEYLRSHEIYSGTPIQSISLRTNSPQPTSLTSDNDTSSVTTAKLQSILFSNYMEEYKVDFKRSTAIYNPMSEIGKLIEYSCLVFLPSPYAEQLKETILPDLNASFDNSDTKGFVNAINLYNKMIREIPRQRIIDHLETIDKIPRSFIHDFLHIVYTRSIHPQANKLKHYKAFSNYVYGELLPNFLSDVYQQCQLKKGDTFMDLGSGVGNCVVQAALECGCALSFGCEIMDDASDLTILQYEELKKRCKLYGMRLNNVEFSLKKSFVDNNRVAELIPQCDVILVNNFLFDEDLNKKVEKILQTAKVGCKIISLKSLRSLTYQINFYNVENIFNRLKVQRYDLKEDSVSWTHSGGEYYISTVMEDVDESLFSPAARGRRNRGTPVKYTR
koff (H4K12ac [1]): 0.00302 s⁻¹
koff (H4K5ac [2]): 0.00317 s⁻¹
koff (H4K8ac [3]): 0.00237 s⁻¹
Kd (H4K12ac [4]): 23.3 nM
Kd (H4K5ac [5]): 20.1 nM
Kd (H4K8ac [6]): 19.6 nM
